Assays:
[1] = tested on: St3gal1; assay: St3gal1 transcription under estrogen; details: FIG. 26
[2] = tested on: WT BMMs; assay: In vitro osteoclast differentiation assay (TRAP staining) of BMMs; type: cell-based, mouse
[3] = tested on: MEK-ERK-MYC signaling; assay: Western blot of ERK, MYC phosphorylation and Siglec15 in BMMs; type: cell-based, mouse
Method: (§1) To explore the molecular mechanism of M-CSF activation of Siglec15, we used U0126, a selective of mitogen-activated protein kinase kinases inhibitor of MEK1 and MEK2. […] To understand Siglec15 transcription, we analyzed the core enhancer of Siglec15 and found three binding sites of MYC with high species […]. Chromatin immunoprecipitation (ChIP) assay was performed to investigate the interaction of MYC with the 3 deoxyribonucleic acid binding sites. […] MYC recognizes and binds to E-box domains with consensus recognition sequence of CACGTG or CATGTG (Guccione et al., 2006). In the 310-bp binding region, we recognized the sequences of TATGTG and AATGTG that share 80% similarities with reported binding bases. To confirm the role of these MYC recognition sequences, we constructed an enhancer reporter with this Siglec15 enhancer, and 3 mutants were derived by site-directed mutagenesis to inactivate the MYC recognition (FIG. 11E). […] Thus, M-CSF activates Siglec15 expression via MEK-ERK-MYC cascade.
(§2) For the co-IP assays, cells were first lysed in the presence of protease inhibitors using IP buffer. […] SDS-PAGE was then used to separate the immunoprecipitates before transfer to a nitrocellulose membrane for immunoblotting procedures. […]

[4] = tested on: Siglec15; assay: Siglec15 expression in BMMs (flow cytometry, immunostaining); type: cell-based, mouse
Method: To understand the detailed mechanism of Siglec15 regulating osteoclast formation, we incubated WT BMMs with biotinylated Siglec15 monoclonal antibody and manually separated Siglec15^+ BMMs from Siglec15- BMMs using anti-biotin microbeads and magnetic separators (FIG. 4A). Separated Siglec15* and Siglec15- BMMs were then stimulated with M-CSF and RANKL for osteoclastogenesis. […] One study reported that osteoclast fusion might be initiated by a small subset of progenitors (Levaot et al., 2015); therefore, we combined separated Siglec15^+ BMMs with BMMs isolated from Siglec15^ΔLysM mice in different proportions (1%, 5%, and 10%). […] Immunofluorescent staining confirmed that Siglec15^+ and Siglec15^− BMMs can form multinucleated osteoclasts with normal actin rings, and the expression of Siglec15 was restored in Siglec15^− BMMs during osteoclastogenesis (FIG. 8). […] BMMs cultured with RANKL alone, absent M-CSF, cannot survive during osteoclastogenesis (FIG. 4D, E).
as §1
Mouse bone specimens were first fixed and then decalcified using 10% EDTA (Sigma-Aldrich, St. Louis, Mo., USA) for 14 days with constant shaking. For the histological assays, the detailed protocols were reported in a previous study (Dou, J. Bone Min. Res. 33, 899-908 (2018)). In short, the samples were then dehydrated and embedded in optimal cutting temperature compound (Sakura Finetek, Torrance, Calif., USA) or in paraffin. Four-μm-thick coronal-oriented femur sections were prepared for TRAP staining. Forty-μm-thick coronal-oriented femur sections were prepared for IF staining. The detailed protocols were described in a previous study study (Dou, J. Bone Min. Res. 33, 899-908 (2018)). Briefly, the sections were incubated with primary antibodies against mouse TLR2 (Santa Cruz Biotechnology, sc-21759, 1:200), Siglec15 (PA5-48221, Thermo Fisher Scientific, 1:100), ST3GAL1 (PA5-21721, Thermo Fisher Scientific, 1:50), and TRAP (Abcam, ab191406, 1:100) for 12 h at 4° C. For sialic acid detection, biotinylated Maackia Amurensis Lectin II (MAL II) (Vector Laboratories, CA, USA) was used to label the α2,3 linkage, and biotinylated Sambucus Nigra Lectin (SNA) (Vector Laboratories, CA, USA) was used to label the α2,6 linkage. Fluorescein-conjugated streptavidin (Vector Laboratories, CA, USA) was used for the addition of a fluorescent label to biotinylated sialic acid conjugates. A Zeiss LSM 780 confocal microscope and an Olympus BX51 microscope were used for image capture.
To sort Siglec15^+ cells, whole bone marrow was collected from mouse femurs and tibias after mice were euthanized with an overdose of inhaled isoflurane. Whole bone marrow cells were also used for culture and induction of BMMs using M-CSF (50 ng mL^−1) for higher Siglec15^+ cell enrichment in further studies. After red blood cell lysis, the cell number was counted, and the same numbers of cells were incubated with a biotinylated mouse Siglec15-specific antibody (PA5-48221, Thermo Fisher Scientific). […]

[5] = tested on: Siglec15 core enhancer; assay: ChIP-PCR of MYC binding at the Siglec15 core enhancer; type: cell-based, mouse; details: BMMs, stimulation for 48 h
Method: For the ChIP assay, primary BMMs were cultured with M-CSF or GM-CSF stimulation for 48 h to detect Siglec15 core enhancer DNA binding. M-CSF-primed cells were induced with RANKL for another 72 h to detect St3 gal1 core enhancer DNA binding. Afterward, the cells were cross-linked using 1% formaldehyde and lysed. DNA fragmentation was then achieved by enzymatic digestion with micrococcal nuclease (MNase). After digestion, 10% of the sample was preserved as the total input aliquot for further use. The remaining supernatant was then incubated with a ChIP-grade primary antibody against mouse p-CREB (Abcam, ab32096, 10 μg), c-FOS (Abcam, ab27793, 10 μg), or c-MYC (Abcam, ab9132, 10 μg). An anti-RNA Polymerase II antibody was used as the positive IP control, and normal rabbit IgG was used as the negative IP control. […] After elution, the DNA was then purified and recovered according to the manufacturer's instructions, and PCR detection was performed. The PCR primers used to detect MYC binding were as follows: Site #1, forward: [NT] ID NO: 1), and reverse: [NT] ID NO: 2); Site #2, forward: [NT] ID NO: 3), and reverse: [NT] ID NO: 4); and Site #3, forward: [NT] ID NO: 5), and reverse: [NT] ID NO: 6). The PCR primers used to detect FOS binding were as follows: forward: [NT] ID NO: 7), and reverse: [NT] ID NO: 8). The PCR primers used to detect CREB binding were as follows: forward: [NT] […]

[6] = tested on: TLR2; assay: Immunostaining of α2,3 and α2,6 sialic acid in WT BMMs; type: cell-based, mouse
Method: Because TLR2 has 4 N-linked glycosylation sites (Weber et al., 2004), to investigate the molecular mechanism of sialylation we tested α2,3 and α2,6 N-Linked SA modification, the two most common sialylation pattern in mammalian cells. […] To understand why α2,3 was sialylated, we examined each member expression profile of the entire sialyltransferase family. […] Moreover, α2,3 SA was immunocolocalized with TLR2, not with Siglec15 in WT and Siglec15^ΔLysM BMMs after RANKL stimulation for 24 h (FIGS. 16C, D).
Mouse bone specimens were first fixed and then decalcified using 10% EDTA (Sigma-Aldrich, St. Louis, Mo., USA) for 14 days with constant shaking. For the histological assays, the detailed protocols were reported in a previous study (Dou, J. Bone Min. Res. 33, 899-908 (2018)). In short, the samples were then dehydrated and embedded in optimal cutting temperature compound (Sakura Finetek, Torrance, Calif., USA) or in paraffin. Four-μm-thick coronal-oriented femur sections were prepared for TRAP staining. Forty-μm-thick coronal-oriented femur sections were prepared for IF staining. The detailed protocols were described in a previous study study (Dou, J. Bone Min. Res. 33, 899-908 (2018)). […]

[7] = tested on: p65; assay: p65 nuclear translocation (immunostaining, western blot) in BMMs; type: cell-based, mouse
[8] = tested on: TLR2; assay: ELISA of peptidoglycan-induced cytokine secretion from BMMs; type: cell-based, mouse; details: RANKL, or RANKL plus sialidase
Description: To test signaling activity of α2,3 sialylation, we removed α2,3 SA of TLR2 induced by RANKL by adding sialidase in the BMM culture. […] To examine the transcriptional mechanism of ST3Gal1 activation by RANKL, we analyzed 5′ promoter sequence of ST3Gal1 and recognized binding sites for CREB1 and FOS (downstream transcription factors of RANKL signaling) in the core enhancer (FIG. 16E). […] To confirm the functional activity of the FOS site, we constructed an enhancer reporter with ST3Gal1 enhancer and FOS mutant binding sites. […] To validate RANKL-induced sialylation in vivo, we crossed RANKL^ﬂ/ﬂ mice with the Dmp1-Cre strain to generate osteocyte-specific RANKL knockout mice (RANKLΔ^Dmp1). […] Furthermore, the Siglec15-TLR2 co-localization that can be observed in RANKL^ﬂ/ﬂ mice disappeared in RANKL^ΔDmp1 mice (FIG. 19B).

[9] = tested on: Siglec15-DAP12; assay: Co-IP of Siglec15 with DAP12 and DAP12 tyrosine phosphorylation in BMMs; type: cell-based, mouse; details: BMMs induced with RANKL, sialidase or both
Method: To examine whether Siglec15 downstream signaling is activated by binding to sialylated TLR2, co-IP of Siglec15 with DAP12, a key factor for cell fusion, was conducted in BMMs induced with RANKL, sialidase or both. […] Moreover, tyrosine phosphorylation of DAP12 was detected in the co-IP experiment upon RANKL induction of Siglec15 clustering but was again impaired by sialidase treatment (FIG. 28d). We then tested whether TLR2 signaling is activated by binding to Siglec15. The recruitment of MyD88 to TLR2 was examined by co-IP. […] Removal of SA by sialidase reduced MyD88 recruitment and NFATc1 activation (FIG. 28e). […] Cell-cell fusion is a fundamental cellular activity of macrophages, and multinucleation is a complex process that is likely involved in multiple signaling pathways. Activation of downstream signaling by both Siglec15 and sialylated TLR2 is involved in different cells simultaneously, and both signaling pathways could also occur in each cell, which could be the critical mechanism for cell fusion.
as §2

estrogen
RANKL-activated St3gal1 transcription [1]: inhibits

N#CC(=C(/N)Sc1ccccc1N)/C(C#N)=C(\N)Sc1ccccc1N [U0126, reference compound]
cell survival rate ([2]; WT BMMs, U0126 10 μmol·L^-1): decreases | osteoclastogenesis ([2]; WT BMMs, U0126 10 μmol·L^-1): decreases | M-CSF-ERK-MYC-Siglec15 cascade ([3]; M-CSF+U0126, 0-72 h): blocked this cascade | Siglec15 upregulated by M-CSF ([4]; BMMs, M-CSF+U0126, immunostaining): abrogated

GM-CSF: granulocyte-macrophage CSF, encoded by CSF2
binding of MYC with the core enhancer of Siglec15 [5]: cannot induce | osteoclastogenesis ([2]; BMMs induced with RANKL+GM-CSF): cannot induce | expression of Siglec15 ([4]; BMMs treated with GM-CSF, immunostaining): cannot induce

B1: RANKL: receptor activator of NF-κappaB ligand (protein, UniProt O14788 140-317, looked up)
Tumor necrosis factor ligand …: IRAEKAMVDGSWLDLAKRSKLEAQPFAHLTINATDIPSGSHKVSLSSWYHDRGWAKISNMTFSNGKLIVNQDGFYYLYANICFRHHETSGDLATEYLQLMVYVTKTSIKIPSSHTLMKGGSTKYWSGNSEFHFYSINVGGFFKLRSGEEISIEVSNPSLLDPDQDATYFGAFKVRDID
α2,3 sialylation of TLR2 [6]: robustly induced | p65 nuclear translocation [7]: activated | peptidoglycan-induced secretion of IL-6 [8]: inhibited | peptidoglycan-induced secretion of TNF-α [8]: inhibited | association of Siglec15 with DAP12 [9]: induced the association of Siglec15 with DAP12

B2: M-CSF: macrophage colony stimulating factor (protein, UniProt P09603 33-554, looked up)
Macrophage colony-stimulating …: EEVSEYCSHMIGSGHLQSLQRLIDSQMETSCQITFEFVDQEQLKDPVCYLKKAFLLVQDIMEDTMRFRDNTPNAIAIVQLQELSLRLKSCFTKDYEEHDKACVRTFYETPLQLLEKVKNVFNETKNLLDKDWNIFSKNCNNSFAECSSQDVVTKPDCNCLYPKAIPSSDPASVSPHQPLAPSMAPVAGLTWEDSEGTEGSSLLPGEQPLHTVDPGSAKQRPPRSTCQSFEPPETPVVKDSTIGGSPQPRPSVGAFNPGMEDILDSAMGTNWVPEEASGEASEIPVPQGTELSPSRPGGGSMQTEPARPSNFLSASSPLPASAKGQQPADVTGTALPRVGPVRPTGQDWNHTPQKTDHPSALLRDPPEPGSPRISSLRPQGLSNPSTLSAQPQLSRSHSSGSVLPLGELEGRRSTRDRRSPAEPEGGPASEGAARPLPRFNSVPLTDTGHERQSEGSFSPQLQESVFHLLVPSVILVLLAVGGLLFYRWRRRSHQEPQRADSPLEQPEGSPLTQDDRQVELPV
MYC phosphorylation via ERK activation ([3]; western blot): phosphorylated the Ser62 of MYC | Siglec15 expression in separated Siglec15- BMMs ([4]; FCM, after 3 days of stimulation): restored Siglec15 expression | proportion of Siglec15+ BMMs ([4]; flow cytometry, Siglec15 ΔLysM mice, M-CSF 3 days): no obvious changes | proportion of Siglec15+ BMMs ([4]; flow cytometry, whole bone-marrow cells of Siglec15 fl/fl mice, M-CSF 3 days): significantly increased | proportion of Siglec15+ BMMs ([4]; immunofluorescent staining, Siglec15 fl/fl mice): significantly increased

From US20230094597A1, “COMPOSITIONS AND METHODS FOR TREATING DISORDERS CHARACTERIZED WITH EXCESSIVE OSTEOCLAST ACTIVITY” (THE JOHNS HOPKINS UNIVERSITY, priority 2021, published 2023)
